Non-standard residues stand in square brackets, D forms with d. No end group written: not given here. *: point of attachment. Tyr(3-F) = N[C@@H](Cc1ccc(O)c(F)c1)C(=O)O; Tyr(2-F) = N[C@@H](Cc1ccc(O)cc1F)C(=O)O; Cha = N[C@@H](CC1CCCCC1)C(=O)O; Gly(cPr) = N[C@H](C(=O)O)C1CC1; dCha = N[C@H](CC1CCCCC1)C(=O)O; Isobutyryl = CC(C)C(=O)*; Abu = CC[C@H](N)C(=O)O; Aib = CC(C)(N)C(=O)O; Bz = O=C(c1ccccc1)*
B1: Ac-[D-Cha24, Abu26, Cha27,28,36, Aib31]-PYY(24-36) (peptide)
peptide: Ac-[dCha]R[Abu][Cha][Cha]NL[Aib]TRQR[Cha]-NH2
SMILES: CC[C@H](NC(=O)[C@H](CCCNC(=N)N)NC(=O)[C@@H](CC1CCCCC1)NC(C)=O)C(=O)N[C@@H](CC1CCCCC1)C(=O)N[C@@H](CC1CCCCC1)C(=O)N[C@@H](CC(N)=O)C(=O)N[C@@H](CC(C)C)C(=O)NC(C)(C)C(=O)N[C@H](C(=O)N[C@@H](CCCNC(=N)N)C(=O)N[C@@H](CCC(N)=O)C(=O)N[C@@H](CCCNC(=N)N)C(=O)N[C@@H](CC1CCCCC1)C(N)=O)[C@@H](C)O
B2: [D-Ser23, Abu26, Cha27,28,36, Aib31]-PYY(23-36) (peptide)
peptide: [dS]LR[Abu][Cha][Cha]NL[Aib]TRQR[Cha]-NH2
modifications: N-terminus assumed
SMILES: CC[C@H](NC(=O)[C@H](CCCNC(=N)N)NC(=O)[C@H](CC(C)C)NC(=O)[C@H](N)CO)C(=O)N[C@@H](CC1CCCCC1)C(=O)N[C@@H](CC1CCCCC1)C(=O)N[C@@H](CC(N)=O)C(=O)N[C@@H](CC(C)C)C(=O)NC(C)(C)C(=O)N[C@H](C(=O)N[C@@H](CCCNC(=N)N)C(=O)N[C@@H](CCC(N)=O)C(=O)N[C@@H](CCCNC(=N)N)C(=O)N[C@@H](CC1CCCCC1)C(N)=O)[C@@H](C)O
B3: Isobutanoyl-[Abu26, Cha27,28, Aib31, Tyr(2F)36]-PYY(25-36) (peptide)
peptide: Isobutyryl-R[Abu][Cha][Cha]NL[Aib]TRQR[Tyr(2-F)]-NH2
SMILES: CC[C@H](NC(=O)[C@H](CCCNC(=N)N)NC(=O)C(C)C)C(=O)N[C@@H](CC1CCCCC1)C(=O)N[C@@H](CC1CCCCC1)C(=O)N[C@@H](CC(N)=O)C(=O)N[C@@H](CC(C)C)C(=O)NC(C)(C)C(=O)N[C@H](C(=O)N[C@@H](CCCNC(=N)N)C(=O)N[C@@H](CCC(N)=O)C(=O)N[C@@H](CCCNC(=N)N)C(=O)N[C@@H](Cc1ccc(O)cc1F)C(N)=O)[C@@H](C)O
B4: Isobutanoyl-[Abu26, Cha27,28, Aib31, Tyr(3F)36]-PYY(25-36) (peptide)
peptide: Isobutyryl-R[Abu][Cha][Cha]NL[Aib]TRQR[Tyr(3-F)]-NH2
SMILES: CC[C@H](NC(=O)[C@H](CCCNC(=N)N)NC(=O)C(C)C)C(=O)N[C@@H](CC1CCCCC1)C(=O)N[C@@H](CC1CCCCC1)C(=O)N[C@@H](CC(N)=O)C(=O)N[C@@H](CC(C)C)C(=O)NC(C)(C)C(=O)N[C@H](C(=O)N[C@@H](CCCNC(=N)N)C(=O)N[C@@H](CCC(N)=O)C(=O)N[C@@H](CCCNC(=N)N)C(=O)N[C@@H](Cc1ccc(O)c(F)c1)C(N)=O)[C@@H](C)O
B5: Isobutanoyl-[Abu26, Cha27,28,36, Gly(cPr)31]-PYY(25-36) (peptide)
peptide: Isobutyryl-R[Abu][Cha][Cha]NL[Gly(cPr)]TRQR[Cha]-NH2
SMILES: CC[C@H](NC(=O)[C@H](CCCNC(=N)N)NC(=O)C(C)C)C(=O)N[C@@H](CC1CCCCC1)C(=O)N[C@@H](CC1CCCCC1)C(=O)N[C@@H](CC(N)=O)C(=O)N[C@@H](CC(C)C)C(=O)N[C@H](C(=O)N[C@H](C(=O)N[C@@H](CCCNC(=N)N)C(=O)N[C@@H](CCC(N)=O)C(=O)N[C@@H](CCCNC(=N)N)C(=O)N[C@@H](CC1CCCCC1)C(N)=O)[C@@H](C)O)C1CC1
B6: Isobutanoyl-[Abu26, Cha27,28,36, Ser30, Aib31]-PYY(25-36) (peptide)
peptide: Isobutyryl-R[Abu][Cha][Cha]NS[Aib]TRQR[Cha]-NH2
SMILES: CC[C@H](NC(=O)[C@H](CCCNC(=N)N)NC(=O)C(C)C)C(=O)N[C@@H](CC1CCCCC1)C(=O)N[C@@H](CC1CCCCC1)C(=O)N[C@@H](CC(N)=O)C(=O)N[C@@H](CO)C(=O)NC(C)(C)C(=O)N[C@H](C(=O)N[C@@H](CCCNC(=N)N)C(=O)N[C@@H](CCC(N)=O)C(=O)N[C@@H](CCCNC(=N)N)C(=O)N[C@@H](CC1CCCCC1)C(N)=O)[C@@H](C)O
B7: Isobutanoyl-[Abu26, Cha27,28,36, Gln30, Aib31]-PYY(25-36) (peptide)
peptide: Isobutyryl-R[Abu][Cha][Cha]NQ[Aib]TRQR[Cha]-NH2
SMILES: CC[C@H](NC(=O)[C@H](CCCNC(=N)N)NC(=O)C(C)C)C(=O)N[C@@H](CC1CCCCC1)C(=O)N[C@@H](CC1CCCCC1)C(=O)N[C@@H](CC(N)=O)C(=O)N[C@@H](CCC(N)=O)C(=O)NC(C)(C)C(=O)N[C@H](C(=O)N[C@@H](CCCNC(=N)N)C(=O)N[C@@H](CCC(N)=O)C(=O)N[C@@H](CCCNC(=N)N)C(=O)N[C@@H](CC1CCCCC1)C(N)=O)[C@@H](C)O
B8: Isobutanoyl-[Abu26, Cha27,28,36, Abu30, Aib31]-PYY(25-36) (peptide)
peptide: Isobutyryl-R[Abu][Cha][Cha]N[Abu][Aib]TRQR[Cha]-NH2
SMILES: CC[C@H](NC(=O)[C@H](CCCNC(=N)N)NC(=O)C(C)C)C(=O)N[C@@H](CC1CCCCC1)C(=O)N[C@@H](CC1CCCCC1)C(=O)N[C@@H](CC(N)=O)C(=O)N[C@@H](CC)C(=O)NC(C)(C)C(=O)N[C@H](C(=O)N[C@@H](CCCNC(=N)N)C(=O)N[C@@H](CCC(N)=O)C(=O)N[C@@H](CCCNC(=N)N)C(=O)N[C@@H](CC1CCCCC1)C(N)=O)[C@@H](C)O
B9: Isobutanoyl-[Abu26, Cha27,28,36, His30, Aib31]-PYY(25-36) (peptide)
peptide: Isobutyryl-R[Abu][Cha][Cha]NH[Aib]TRQR[Cha]-NH2
SMILES: CC[C@H](NC(=O)[C@H](CCCNC(=N)N)NC(=O)C(C)C)C(=O)N[C@@H](CC1CCCCC1)C(=O)N[C@@H](CC1CCCCC1)C(=O)N[C@@H](CC(N)=O)C(=O)N[C@@H](Cc1c[nH]cn1)C(=O)NC(C)(C)C(=O)N[C@H](C(=O)N[C@@H](CCCNC(=N)N)C(=O)N[C@@H](CCC(N)=O)C(=O)N[C@@H](CCCNC(=N)N)C(=O)N[C@@H](CC1CCCCC1)C(N)=O)[C@@H](C)O
B10: Isobutanoyl-[Abu26, Cha27,36, Gly(cPr)28, Aib31]-PYY(25-36) (peptide)
peptide: Isobutyryl-R[Abu][Cha][Gly(cPr)]NL[Aib]TRQR[Cha]-NH2
SMILES: CC[C@H](NC(=O)[C@H](CCCNC(=N)N)NC(=O)C(C)C)C(=O)N[C@@H](CC1CCCCC1)C(=O)N[C@H](C(=O)N[C@@H](CC(N)=O)C(=O)N[C@@H](CC(C)C)C(=O)NC(C)(C)C(=O)N[C@H](C(=O)N[C@@H](CCCNC(=N)N)C(=O)N[C@@H](CCC(N)=O)C(=O)N[C@@H](CCCNC(=N)N)C(=O)N[C@@H](CC1CCCCC1)C(N)=O)[C@@H](C)O)C1CC1
B11: Isobutanoyl-[Abu26,27, Cha28,36, Aib31]-PYY(25-36) (peptide)
peptide: Isobutyryl-R[Abu][Abu][Cha]NL[Aib]TRQR[Cha]-NH2
SMILES: CC[C@H](NC(=O)[C@H](CCCNC(=N)N)NC(=O)C(C)C)C(=O)N[C@@H](CC)C(=O)N[C@@H](CC1CCCCC1)C(=O)N[C@@H](CC(N)=O)C(=O)N[C@@H](CC(C)C)C(=O)NC(C)(C)C(=O)N[C@H](C(=O)N[C@@H](CCCNC(=N)N)C(=O)N[C@@H](CCC(N)=O)C(=O)N[C@@H](CCCNC(=N)N)C(=O)N[C@@H](CC1CCCCC1)C(N)=O)[C@@H](C)O
B12: Isobutanoyl-[Abu26, Gly27, Cha28,36, Aib31]-PYY(25-36) (peptide)
peptide: Isobutyryl-R[Abu]G[Cha]NL[Aib]TRQR[Cha]-NH2
SMILES: CC[C@H](NC(=O)[C@H](CCCNC(=N)N)NC(=O)C(C)C)C(=O)NCC(=O)N[C@@H](CC1CCCCC1)C(=O)N[C@@H](CC(N)=O)C(=O)N[C@@H](CC(C)C)C(=O)NC(C)(C)C(=O)N[C@H](C(=O)N[C@@H](CCCNC(=N)N)C(=O)N[C@@H](CCC(N)=O)C(=O)N[C@@H](CCCNC(=N)N)C(=O)N[C@@H](CC1CCCCC1)C(N)=O)[C@@H](C)O
B13: Benzoyl-[Ser26, Cha27,28,36, Aib31]-PYY(25-36) (peptide)
peptide: Bz-RS[Cha][Cha]NL[Aib]TRQR[Cha]-NH2
SMILES: CC(C)C[C@H](NC(=O)[C@H](CC(N)=O)NC(=O)[C@H](CC1CCCCC1)NC(=O)[C@H](CC1CCCCC1)NC(=O)[C@H](CO)NC(=O)[C@H](CCCNC(=N)N)NC(=O)c1ccccc1)C(=O)NC(C)(C)C(=O)N[C@H](C(=O)N[C@@H](CCCNC(=N)N)C(=O)N[C@@H](CCC(N)=O)C(=O)N[C@@H](CCCNC(=N)N)C(=O)N[C@@H](CC1CCCCC1)C(N)=O)[C@@H](C)O

What was measured:
[1] = molecular target: human Y2 receptor (human) (UniProt P49146); assay: cell-based or functional assay
[2] = molecular target: human Y2 receptor (human) (UniProt P49146); assay: RBA: [125I]-PYY displacement, hY2R/CHO membranes

Chain of human Y2 receptor (human) (P49146 whole entry): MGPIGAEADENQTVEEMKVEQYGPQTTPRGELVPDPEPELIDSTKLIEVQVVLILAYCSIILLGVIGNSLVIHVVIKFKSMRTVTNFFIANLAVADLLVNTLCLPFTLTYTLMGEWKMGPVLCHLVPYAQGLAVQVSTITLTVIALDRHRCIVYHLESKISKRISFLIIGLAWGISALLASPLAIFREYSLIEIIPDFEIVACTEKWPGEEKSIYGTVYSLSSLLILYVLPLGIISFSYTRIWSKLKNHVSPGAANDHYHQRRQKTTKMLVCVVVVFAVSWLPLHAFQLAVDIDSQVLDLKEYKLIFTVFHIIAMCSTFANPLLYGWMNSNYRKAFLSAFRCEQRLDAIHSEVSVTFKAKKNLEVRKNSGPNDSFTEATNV

Binder | GBA EC50 Ratio (vs PYY(3-36)), [35S]GTPγS [1] | IC50 Ratio (vs PYY(3-36)) [2]
B1 | 13 | 15
B2 | 11 | 15
B3 | 11 | 19
B4 | 20 | 26
B5 | 16 | 25
B6 | 28 | 26
B7 | 22 | 19
B8 | 21 | 20
B9 | 20 | 22
B10 | 41 | 52
B11 | 37 | 31
B12 | 49 | 70
B13 | 6 | 13

Reference: patent US20120172293A1 (Takeda / Millennium, published 2012)
